# Experimental data from patent US5621089.
# Molecular target: casein
substance,measurement,value
"PD498 alkaline protease (protease purified from Bacillus sp. PD498, NCIMB No. 40484) (enzyme)","proteolytic activity (Casein Protease Units, CPU)",120 CPU/l
